In CN111995674A (INST MILITARY MEDICINE ACADEMY MILITARY SCIENCES PLA, dated 2020):

Target: RBD重组蛋白 (SARS-CoV-2 S蛋白RBD区, 毕赤酵母GJK0601表达) (SARS-CoV-2)

B1: 人鼠嵌合全抗体mhC3 (antibody, V domains shown)
VH: EVQLVESGGDLVKPGGSLKLSCAASGFTFNTYAMNWVRQTPGKGLEWVARIRSKSNNYATYYADSVKDRFTISRDDSQSMLYLQMNNLKTEDTAMYYCVTPYYGNYADWFTYWGQGTSVTVSS
VL: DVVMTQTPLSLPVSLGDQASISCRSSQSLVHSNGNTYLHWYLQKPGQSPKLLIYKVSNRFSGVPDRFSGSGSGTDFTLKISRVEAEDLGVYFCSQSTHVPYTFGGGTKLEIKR
notes: also called mhC3抗体; C3 (图5、图6)
EC50: 0.0129 nM
